The values that follow are results of earlier work, collected in patent US12599654B2, “Immunogenic peptide fragments of metalloprotease ADAMTS-7 and uses thereof in anti-atherosclerosis and related diseases” (BEIJING KIMWAY BIOTECH CO. LTD, priority 2019, dated 2026).

In this data set the target is T1, proprotein convertase subtilisin/kexin type 9 (PCSK9) (Homo sapiens, UniProt Q8NBP7).
T1 construct: host or cells: human trial subjects (endogenous circulating PCSK9)
The settings on record: low-dose, phase I clinical trials; cited from earlier work.

For the substance “REGN727: monoclonal antibody against the proprotein convertase subtilisin/kexin type 9 (PCSK9)”, the “reduction of LDL level of subjects” value was “more than 30%”.
